Data taken from patent publication US5786191A, “Cloning and expression of complementary DNAs for multiple members of the human cytochrome P450 2C subfamily” (priority 1994, dated 1998).

Key:
Assay type in all cases: biochemical
[1] = Mephenytoin 4'-hydroxylase assay, recombinant human CYP2C yeast microsomes, S-enantiomer
Method: (§1) Purified or recombinant yeast microsomes (10-50 pmol) were preincubated with dilauroylphosphatidylcholine (15 μg per 50 pmol P450), P450 reductase (500 U per 50 mol P450), and human cytochrome b5 (2:1 molar ratio when added). The reconstituted mixture was preincubated for 5 min at 37° C., and then placed on ice. […] The mixture was then incubated at 37° with shaking for 3 min, and the reaction started with the addition of 2 mM NADPH and terminated after 30 min with an equal volume of methanol. […] Reaction volumes were generally 0.25 ml except when the volume of recombinant purified cytochrome or yeast microsomes was greater than 50 μl. In these cases, the volume was increased to 0.5 ml to limit the volume of glycerol from the purified preparation to <4% of the final volume.
(§2) At the end of the incubation period, the reactions were terminated with an equal volume of methanol. The incubation mixture was centrifuged at 10,000 g for 10 min and an aliquot assayed directly using HPLC without extraction. Samples with particularly low activity were concentrated by lyophilization and redissolved in a small volume of methanol:water (1:1) before assay. The HPLC system consisted of a reverse phase C18 (10 μm) Versapak, 300 mm×4.1 mm column (Altech Associates, Deerfield, Ill.) using an isocratic solvent consisting of methanol:water (45:55) with a flow rate was kept of 1 ml/min for 25 min.

[2] = Mephenytoin 4'-hydroxylase assay, recombinant human CYP2C yeast microsomes, R-enantiomer; settings: yeast microsomes + P450 reductase, phospholipid, cytochrome b5 2:1; 0.4 mM substrate; 37° C., 30 min; liver microsomes unfortified, phosphate buffer; means ± SE
Method: as §1, §2

[3] = Mephenytoin 4'-hydroxylase assay, purified recombinant P450s in reconstituted system, S-enantiomer
Method: as §1, §2

[4] = Mephenytoin 4'-hydroxylase assay, purified recombinant P450s in reconstituted system, R-enantiomer; settings: triplicate, means ± SE, blank not subtracted
Method: as §1, §2

[5] = Tolbutamide hydroxylase assay, purified reconstituted P450s; settings: blank (22 ± 5) subtracted, means ± SE
Method: Tolbutamide hydroxylase activity was measured according to Knodell et al., J. Pharmacol. Exper. Ther. 241:1112-1119 (1987), with several modifications. Yeast microsomes (1 mg protein) were preincubated with 300 pmol hamster P450 reductase in 0.2 ml of the incubation buffer (below) for 3 min at 37° C. The reaction was then placed on ice and incubated in 0.2 ml of 50 mM HEPES buffer (pH 7.4) containing 1.5 mM MgCl2, 0.1 mM EDTA in a final volume of 1 ml and 1 mM sodium tolbutamide. The reaction was initiated with 0.5 mM NADPH. Human liver microsomes (0.22 mg protein) were incubated without reductase. Incubations with reconstituted recombinant P450s contained 50 pmol purified P450 enzyme, 150 pmol P450 reductase, and 15 μg dilauroylphosphatidylcholine, and were performed in 100 mM potassium phosphate buffer (pH 7.4). Reactions were terminated after 60 min at 37° C. by the addition of 50 μl of 4N HCl, followed by extraction with 3 ml of water-saturated ethyl acetate. The ethyl acetate extracts were dried under nitrogen at 40° C., the residue resolubilized in 200 μl methanol, and 4-hydroxytolbutamide then assayed using HPLC by injecting 50 μl of the solubilized extract onto a μBONDAPAK C18 column (4.6×300 mm) using 0.05% phosphoric acid, pH 2.6: acetonitrile (6:4, v/v) as the mobile phase with a flow rate of 1 ml/min. The column eluate was monitored at 230 nm and rates of product formation were determined from standard curves prepared by adding varying amounts of 4-hydroxytolbutamide to incubations conducted without NADPH. […] Samples were analyzed in triplicate.

[6] = Tolbutamide hydroxylase assay, recombinant human CYP2C yeast microsomes; settings: means ± SE
Method: Yeast microsomes (1 mg protein) were preincubated with 300 pmol hamster P450 reductase in 0.2 ml of the incubation buffer (below) for 3 min at 37° C. The reaction was then placed on ice and incubated in 0.2 ml of 50 mM HEPES buffer (pH 7.4) containing 1.5 mM MgCl2, 0.1 mM EDTA in a final volume of 1 ml and 1 mM sodium tolbutamide. The reaction was initiated with 0.5 mM NADPH. Human liver microsomes (0.22 mg protein) were incubated without reductase. Incubations with reconstituted recombinant P450s contained 50 pmol purified P450 enzyme, 150 pmol P450 reductase, and 15 μg dilauroylphosphatidylcholine, and were performed in 100 mM potassium phosphate buffer (pH 7.4). Reactions were terminated after 60 min at 37° C. by the addition of 50 μl of 4N HCl, followed by extraction with 3 ml of water-saturated ethyl acetate. […] The column eluate was monitored at 230 nm and rates of product formation were determined from standard curves prepared by adding varying amounts of 4-hydroxytolbutamide to incubations conducted without NADPH. […] Samples were analyzed in triplicate.

B1: 2C8: recombinant human P450 2C8 (clones 7b and 7c, Thr^130 Ile^264 variant) expressed in yeast (protein, UniProt P10632 1-490, looked up)
Cytochrome P450 2C8: MEPFVVLVLCLSFMLLFSLWRQSCRRRKLPPGPTPLPIIGNMLQIDVKDICKSFTNFSKVYGPVFTVYFGMNPIVVFHGYEAVKEALIDNGEEFSGRGNSPISQRITKGLGIISSNGKRWKEIRRFSLTTLRNFGMGKRSIEDRVQEEAHCLVEELRKTKASPCDPTFILGCAPCNVICSVVFQKRFDYKDQNFLTLMKRFNENFRILNSPWIQVCNNFPLLIDCFPGTHNKVLKNVALTRSYIREKVKEHQASLDVNNPRDFIDCFLIKMEQEKDNQKSEFNIENLVGTVADLFVAGTETTSTTLRYGLLLLLKHPEVTAKVQEEIDHVIGRHRSPCMQDRSHMPYTDAVVHEIQRYSDLVPTGVPHAVTTDTKFRNYLIPKGTTIMALLTSVLHDDKEFPNPNIFDPGHFLDKNGNFKKSDYFMPFSAGKRICAGEGLARMELFLFLTTILQNFNLKSVDDLKNLNTTAVTKGIVSLPPSYQICFIPV
- R/S Ratio of mephenytoin 4'-hydroxylase activity ([1]; recombinant yeast microsomes (Table III)): 0.4
- Mephenytoin 4'-Hydroxylase Activity, S ([1]; yeast microsomes + P450 reductase, phospholipid, cytochrome b5 2:1, 0.4 mM substrate, 37° C., 30 min, liver microsomes unfortified, phosphate buffer, means ± SE): 0.037 ± 0.001 nmol/min/nmol P450
- Mephenytoin 4'-Hydroxylase Activity, R [2]: 0.016 ± 0.001 nmol/min/nmol P450
- R/S Ratio of mephenytoin 4'-hydroxylase activity ([3]; purified P450s (Table IV)): 0.4
- Mephenytoin 4'-Hydroxylase Activity, S ([3]; purified P450s, reconstituted system, triplicate, means ± SE, blank not subtracted): 0.057 ± 0.009 nmol/min/nmol P450
- Mephenytoin 4'-Hydroxylase Activity, R [4]: 0.023 ± 0.004 nmol/min/nmol P450
- Tolbutamide Hydroxylase Activity [5]: 12 ± 4 pmol/min/nmol P450
- Tolbutamide Hydroxylase Activity per mg protein ([6]; 1 mg yeast microsomal protein + P450 reductase, or 0.2 mg liver microsomal protein without reductase): 8.5 ± 0.2 nmol/min/mg protein
- Tolbutamide Hydroxylase Activity per nmol P450 ([6]; adjusted for P450 content): 0.11 ± 0.003 nmol/min/nmol P450
